Numbered stars: 1 amine (or outer) side, 2 acyl side, 3 side chain; on linkers, the order of the positions; unused ones are H or OH. Bridge positions count the residues as written; N and C are the ends. Square brackets hold non-standard residues; d marks the D form. Side chains are listed from the residue outwards. Ends that are not written are not given here. * marks the point of attachment. C20 diacid = O=C(O)CCCCCCCCCCCCCCCCCCC(=O)*; γGlu = O=C(O)[C@H](CCC(=O)[*:2])N[*:1]; C14 diacid = O=C(O)CCCCCCCCCCCCC(=O)*
T1: rat calcitonin receptor (rat, UniProt P32214 25-516)
T1 construct: whole, on cells; Used as membranes prepared from the transfected cells (Assay VIII); also called rCTR; rat calcitonin (a) receptor
T1 sequence (looked up): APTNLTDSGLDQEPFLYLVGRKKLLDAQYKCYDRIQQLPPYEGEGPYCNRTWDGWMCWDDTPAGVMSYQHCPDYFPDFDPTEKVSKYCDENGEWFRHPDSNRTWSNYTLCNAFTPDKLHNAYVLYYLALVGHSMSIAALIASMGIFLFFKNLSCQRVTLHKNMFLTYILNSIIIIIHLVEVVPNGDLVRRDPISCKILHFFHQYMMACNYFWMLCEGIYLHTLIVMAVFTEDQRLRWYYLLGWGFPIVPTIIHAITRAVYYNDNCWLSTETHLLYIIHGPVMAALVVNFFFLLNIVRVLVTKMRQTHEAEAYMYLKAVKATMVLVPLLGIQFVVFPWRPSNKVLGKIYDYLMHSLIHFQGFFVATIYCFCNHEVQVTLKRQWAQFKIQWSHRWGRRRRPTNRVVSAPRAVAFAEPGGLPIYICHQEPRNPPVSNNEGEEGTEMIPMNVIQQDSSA

T2: human calcitonin receptor (human, UniProt P30988 25-474)
T2 construct: whole, on cells; Used as membranes prepared from the transfected cells (Assay VII); also called hCTR; hCT
T2 sequence (looked up): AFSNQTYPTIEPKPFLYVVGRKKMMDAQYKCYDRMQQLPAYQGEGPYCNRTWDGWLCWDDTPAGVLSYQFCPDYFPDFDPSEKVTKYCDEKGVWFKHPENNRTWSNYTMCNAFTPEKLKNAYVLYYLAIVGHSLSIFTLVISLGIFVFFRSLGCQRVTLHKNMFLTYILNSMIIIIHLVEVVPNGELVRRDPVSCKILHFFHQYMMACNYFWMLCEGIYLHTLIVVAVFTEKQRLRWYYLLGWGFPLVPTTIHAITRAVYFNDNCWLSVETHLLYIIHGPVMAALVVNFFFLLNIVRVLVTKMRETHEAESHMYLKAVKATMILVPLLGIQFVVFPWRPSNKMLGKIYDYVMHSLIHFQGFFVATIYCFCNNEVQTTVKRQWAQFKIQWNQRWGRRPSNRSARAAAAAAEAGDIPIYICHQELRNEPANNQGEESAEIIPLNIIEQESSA

T3: rat amylin receptor (rat calcitonin receptor + rat RAMP 3) (rat, UniProt P32214 25-516; Q9JJ73 23-147)
T3 construct: whole, on cells; Used as membranes prepared from the transfected cells (Assay VI); also called rAmylin-R; rat amylin 3(a) receptor
T3 sequence (looked up) 1: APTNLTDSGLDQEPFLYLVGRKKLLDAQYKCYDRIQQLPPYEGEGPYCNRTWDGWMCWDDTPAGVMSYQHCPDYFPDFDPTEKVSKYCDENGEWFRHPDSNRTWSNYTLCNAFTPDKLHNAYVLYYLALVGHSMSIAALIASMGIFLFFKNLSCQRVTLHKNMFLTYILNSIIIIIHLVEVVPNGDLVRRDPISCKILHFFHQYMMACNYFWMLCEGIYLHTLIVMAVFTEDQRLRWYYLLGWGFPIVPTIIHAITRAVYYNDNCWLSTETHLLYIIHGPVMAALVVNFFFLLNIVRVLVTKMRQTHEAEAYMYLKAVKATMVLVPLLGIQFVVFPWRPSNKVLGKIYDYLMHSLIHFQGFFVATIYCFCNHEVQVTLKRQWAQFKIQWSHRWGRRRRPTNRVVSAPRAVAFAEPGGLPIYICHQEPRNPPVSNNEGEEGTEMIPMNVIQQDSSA
T3 sequence (looked up) 2: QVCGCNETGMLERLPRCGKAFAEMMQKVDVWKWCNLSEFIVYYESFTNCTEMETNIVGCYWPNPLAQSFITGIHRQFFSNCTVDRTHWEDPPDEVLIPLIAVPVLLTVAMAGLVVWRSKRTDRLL


Columns and labels:
rat calcitonin receptor [1] = biological target: T1, rat calcitonin receptor; experiment: ratio of IC50 on rat calcitonin receptor (Assay VIII) to IC50 on rat amylin receptor (Assay VI)
[2] = biological target: T2, human calcitonin receptor; experiment: ratio of IC50 on human calcitonin receptor (Assay VII) to IC50 on human amylin receptor (Assay V)
Protocol: The resulting pellet was resuspended, homogenized and centrifuged (20.000 rpm, 15 min) in a buffer containing 20 mM Na-HEPES and 0.1 mM EDTA (pH 7.4, buffer 2). The resulting pellet was resuspended in buffer 2 and protein concentration was measured (BCA protein Assay, Pierce). The homogenate was kept cold during the whole procedure. The membranes were kept at −80° C. until use. The assay was performed in a 384 well Optiplate (PerkinElmer) in a total volume of 40 ul. Membranes were mixed with SPA beads. Final concentration of membranes 35 ng/μL final and SPA beads was 0.05 mg/well. Test-compounds were dissolved in DMSO and further diluted in assay buffer (50 mM Hepes, pH 7.4, 1 mM CaCl2, 5 mM MgCl₂, 0.1% OA and 0.02% Tween20). […] The final mixture was incubated with shaking at 400 rpm for 120 min at 25° C. prior to centrifugation (1500 rpm, 10 min). Samples were analyzed on TopCounter™ (Packard). The IC₅₀ was calculated using (one site binding competition analysis) GraphPad Prism5 as a measure of receptor affinity.
Membranes were prepared in the following way; the cells were rinsed with PBS and incubated with Versene for approximately 5 min before harvesting. The cells were flushed with PBS and the cell-suspension was centrifuged for 5 min at 1000 rpm. Cells were homogenized (Ultrathurrax) in a buffer containing 20 mM Na-HEPES and 10 mM EDTA (pH 7.4) and centrifuged at 20.000 rpm for 15 min. The resulting pellet was resuspended, homogenized and centrifuged (20.000 rpm, 15 min) in a buffer containing 20 mM Na-HEPES and 0.1 mM EDTA (pH 7.4, buffer 2). The resulting pellet was resuspended in buffer 2 and protein concentration was measured (BCA protein Assay, Pierce). The homogenate was kept cold during the whole procedure. The membranes were kept at −80° C. until use. Assay was performed in a 384 well Optiplate (PerkinElmer) in a total volume of 40 ul. Membranes were mixed with SPA beads.

rat calcitonin receptor [3] = biological target: T1, rat calcitonin receptor; experiment: SPA competition binding, displacement of 125I-calcitonin from membranes of BHK tk'ts 13 cells transfected with rat calcitonin receptor (Assay VIII)
[4] = biological target: T3, rat amylin receptor (rat calcitonin …); experiment: SPA competition binding, displacement of 125I-rat amylin from membranes of BHK tk'ts 13 cells transfected with rat calcitonin receptor + rat RAMP 3 (Assay VI)

Binder	Ratio rCT/rAmylin binding (rat calcitonin receptor [1])	Ratio hCT/hAmylin binding [2]	IC50 (rat calcitonin receptor [3])	IC50 [4]
{C20 diacid-γGlu}-GRCNTATCATQRLAHFLRHSSPNFGAIPSSTNVGPNTY-NH2 (disulfide 3-8; SMILES CC[C@H](C)[C@H](NC(=O)[C@H](C)NC(=O)CNC(=O)[C@H](Cc1ccccc1)NC(=O)[C@H](CC(N)=O)NC(=O)[C@@H]1CCCN1C(=O)[C@H](CO)NC(=O)[C@H](CO)NC(=O)[C@H](Cc1c[nH]cn1)NC(=O)[C@H](CCCNC(=N)N)NC(=O)[C@H](CC(C)C)NC(=O)[C@H](Cc1ccccc1)NC(=O)[C@H](Cc1c[nH]cn1)NC(=O)[C@H](C)NC(=O)[C@H](CC(C)C)NC(=O)[C@H](CCCNC(=N)N)NC(=O)[C@H](CCC(N)=O)NC(=O)[C@@H](NC(=O)[C@H](C)NC(=O)[C@@H]1CSSC[C@H](NC(=O)[C@H](CCCNC(=N)N)NC(=O)CNC(=O)CC[C@H](NC(=O)CCCCCCCCCCCCCCCCCCC(=O)O)C(=O)O)C(=O)N[C@@H](CC(N)=O)C(=O)N[C@@H]([C@@H](C)O)C(=O)N[C@@H](C)C(=O)N[C@@H]([C@@H](C)O)C(=O)N1)[C@@H](C)O)C(=O)N1CCC[C@H]1C(=O)N[C@@H](CO)C(=O)N[C@@H](CO)C(=O)N[C@H](C(=O)N[C@@H](CC(N)=O)C(=O)N[C@H](C(=O)NCC(=O)N1CCC[C@H]1C(=O)N[C@@H](CC(N)=O)C(=O)N[C@H](C(=O)N[C@@H](Cc1ccc(O)cc1)C(N)=O)[C@@H](C)O)C(C)C)[C@@H](C)O, not restated for each compound)	97.7	36.2	65.9 nM	0.674 nM
{C20 diacid-γGlu}-GRCNTATCATQRLAAFLRHSSPNFGAIPSSTNVGPNTY-NH2 (disulfide 3-8, not restated for each compound)	129	26.5	56.3 nM	0.436 nM
K([γGlu-γGlu-C20 diacid])CNTATCATQRLAEFLRHSSPNFGAIPSSTNVGPRTY-NH2 (disulfide 2-7; N-terminus assumed; SMILES CC[C@H](C)[C@H](NC(=O)[C@H](C)NC(=O)CNC(=O)[C@H](Cc1ccccc1)NC(=O)[C@H](CC(N)=O)NC(=O)[C@@H]1CCCN1C(=O)[C@H](CO)NC(=O)[C@H](CO)NC(=O)[C@H](Cc1c[nH]cn1)NC(=O)[C@H](CCCNC(=N)N)NC(=O)[C@H](CC(C)C)NC(=O)[C@H](Cc1ccccc1)NC(=O)[C@H](CCC(=O)O)NC(=O)[C@H](C)NC(=O)[C@H](CC(C)C)NC(=O)[C@H](CCCNC(=N)N)NC(=O)[C@H](CCC(N)=O)NC(=O)[C@@H](NC(=O)[C@H](C)NC(=O)[C@@H]1CSSC[C@H](NC(=O)[C@@H](N)CCCCNC(=O)CC[C@H](NC(=O)CC[C@H](NC(=O)CCCCCCCCCCCCCCCCCCC(=O)O)C(=O)O)C(=O)O)C(=O)N[C@@H](CC(N)=O)C(=O)N[C@@H]([C@@H](C)O)C(=O)N[C@@H](C)C(=O)N[C@@H]([C@@H](C)O)C(=O)N1)[C@@H](C)O)C(=O)N1CCC[C@H]1C(=O)N[C@@H](CO)C(=O)N[C@@H](CO)C(=O)N[C@H](C(=O)N[C@@H](CC(N)=O)C(=O)N[C@H](C(=O)NCC(=O)N1CCC[C@H]1C(=O)N[C@@H](CCCNC(=N)N)C(=O)N[C@H](C(=O)N[C@@H](Cc1ccc(O)cc1)C(N)=O)[C@@H](C)O)C(C)C)[C@@H](C)O, not restated for each compound; also called compound 110)	113	53.6	38.3 nM	0.339 nM
K([γGlu-C14 diacid])CNTATCATQRLANFLRHSSPNFGAIPSSTNVGHNTY-NH2 (disulfide 2-7; N-terminus assumed; SMILES CC[C@H](C)[C@H](NC(=O)[C@H](C)NC(=O)CNC(=O)[C@H](Cc1ccccc1)NC(=O)[C@H](CC(N)=O)NC(=O)[C@@H]1CCCN1C(=O)[C@H](CO)NC(=O)[C@H](CO)NC(=O)[C@H](Cc1c[nH]cn1)NC(=O)[C@H](CCCNC(=N)N)NC(=O)[C@H](CC(C)C)NC(=O)[C@H](Cc1ccccc1)NC(=O)[C@H](CC(N)=O)NC(=O)[C@H](C)NC(=O)[C@H](CC(C)C)NC(=O)[C@H](CCCNC(=N)N)NC(=O)[C@H](CCC(N)=O)NC(=O)[C@@H](NC(=O)[C@H](C)NC(=O)[C@@H]1CSSC[C@H](NC(=O)[C@@H](N)CCCCNC(=O)CC[C@H](NC(=O)CCCCCCCCCCCCC(=O)O)C(=O)O)C(=O)N[C@@H](CC(N)=O)C(=O)N[C@@H]([C@@H](C)O)C(=O)N[C@@H](C)C(=O)N[C@@H]([C@@H](C)O)C(=O)N1)[C@@H](C)O)C(=O)N1CCC[C@H]1C(=O)N[C@@H](CO)C(=O)N[C@@H](CO)C(=O)N[C@H](C(=O)N[C@@H](CC(N)=O)C(=O)N[C@H](C(=O)NCC(=O)N[C@@H](Cc1c[nH]cn1)C(=O)N[C@@H](CC(N)=O)C(=O)N[C@H](C(=O)N[C@@H](Cc1ccc(O)cc1)C(N)=O)[C@@H](C)O)C(C)C)[C@@H](C)O, not restated for each compound) [N^ε1-[(4S)-4-carboxy-4-(13-carboxytridecanoylamino)butanoyl]-[Arg17,Pro21,Pro27,His34]-h-amylin]	280	23.5	707 nM	2.52 nM
K([γGlu-γGlu-C20 diacid])CNTATCATQRLA[dD]FLRHSSPNFGAIPSSTNVGSRTY-NH2 (disulfide 2-7; N-terminus assumed; SMILES CC[C@H](C)[C@H](NC(=O)[C@H](C)NC(=O)CNC(=O)[C@H](Cc1ccccc1)NC(=O)[C@H](CC(N)=O)NC(=O)[C@@H]1CCCN1C(=O)[C@H](CO)NC(=O)[C@H](CO)NC(=O)[C@H](Cc1c[nH]cn1)NC(=O)[C@H](CCCNC(=N)N)NC(=O)[C@H](CC(C)C)NC(=O)[C@H](Cc1ccccc1)NC(=O)[C@@H](CC(=O)O)NC(=O)[C@H](C)NC(=O)[C@H](CC(C)C)NC(=O)[C@H](CCCNC(=N)N)NC(=O)[C@H](CCC(N)=O)NC(=O)[C@@H](NC(=O)[C@H](C)NC(=O)[C@@H]1CSSC[C@H](NC(=O)[C@@H](N)CCCCNC(=O)CC[C@H](NC(=O)CC[C@H](NC(=O)CCCCCCCCCCCCCCCCCCC(=O)O)C(=O)O)C(=O)O)C(=O)N[C@@H](CC(N)=O)C(=O)N[C@@H]([C@@H](C)O)C(=O)N[C@@H](C)C(=O)N[C@@H]([C@@H](C)O)C(=O)N1)[C@@H](C)O)C(=O)N1CCC[C@H]1C(=O)N[C@@H](CO)C(=O)N[C@@H](CO)C(=O)N[C@H](C(=O)N[C@@H](CC(N)=O)C(=O)N[C@H](C(=O)NCC(=O)N[C@@H](CO)C(=O)N[C@@H](CCCNC(=N)N)C(=O)N[C@H](C(=O)N[C@@H](Cc1ccc(O)cc1)C(N)=O)[C@@H](C)O)C(C)C)[C@@H](C)O, not restated for each compound)			536 nM	1.69 nM

Reference: patent US20140087995A1 (published 2014)
